# Test system: Bacillus subtilis
# Test: cleaved RNA product abundance (RNA/gDNA barcode ratio) relative to median wild-type variant (ratio to wild type); higher = more accumulation of the downstream cleavage product
# Summary of the method: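 Reporter mRNAs based on truncated aprE or tetM carried barcoded, mutagenized RNase Y cleavage-site windows built from oligos with a 9% error rate and were integrated into the B. subtilis chromosome. Cultures grew in LB at 37°C from OD600 0.0003 to 0.3. Cleaved RNA was gel-selected, reverse transcribed and barcode-sequenced together with genomic DNA barcodes, and UMIs were collapsed. Cleaved product abundance is the per-construct ratio of RNA to gDNA barcodes, scaled to the median of constructs carrying the unmutated site.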
# [1] = experiment (reporter, strain, medium): exp 6: tetM reporter, strain 168, cleavage site: cggR-gapA (positions -7 to +36 mutated)
# [2] = experiment (reporter, strain, medium): exp 4a: truncated aprE reporter, strain BJT201 with 2% xylose (RNase J1 expressed), cleavage site: cggR-gapA (positions -7 to +36 mutated)
# [3] = experiment (reporter, strain, medium): exp 8a: truncated aprE reporter, strain BJT201 with 2% xylose (RNase J1 expressed), cleavage site: glnRA (positions -5 to +31 mutated)
# [4] = experiment (reporter, strain, medium): exp 2b: truncated aprE reporter, strain BJT200, cleavage site: cggR-gapA (positions -7 to +36 mutated)
Sequence,cleaved RNA product abundance [2],cleaved RNA product abundance [3],further results
ACAGACGAAGGAGCTGCAAAGAAGTTATTAAGGGATGAATAATCCCTCAATATAAATATCTCTCACTTATTTAAA,–,–,cleaved RNA product abundance [1]: 0.987
ACAGACGAAGGAGCCGCAAAGAAGTTCTTAAGGGATGAATATTCCCTCAATATAAATATCTCTCACTTATTTAAA,0.245,–,–
CGACATGTCCCGCTTCTTTCATTAATCCGTTAGCACCTGTTTTGCAATATACATTTACCTTTTAAGAGGAGGAAT,–,0.351,–
ACAGACGAAGGAGCCGCAAAGAAGTTATTAACGGATGAATAATCCCTCATTATAAATATCTCTCACTTATTTAAA,0.141,–,cleaved RNA product abundance [4]: 0.128
ACAGACGAAGGAGCCGCAAAGAAGTTATTAAGTGATGAATAATCCCTGAATATAAATATCTCTCACTTATTTAAA,0.0547,–,cleaved RNA product abundance [4]: 0.0871
ACAGACGAAGGAGCCGCAAAGACGTTATTAACGGATGAATAATCCCTCAATATAAATATCTCTCACTTATTTAAA,0.165,–,–
ACAGACGAAGGAGCCGCAAAAAAGTTATTAAGGGATGAATAATCCCTCAATATAAATTTCTCTCACTTATTTAAA,1.04,–,–
ACAGACGAAGGAGCCGCAAATAAGTTATTAAGGGATGAATAATCCCTAAATATAAATATCTCTCACTTATTTAAA,0.865,–,cleaved RNA product abundance [4]: 0.668
CGACATGTCCCGCTTCTTTCATTAATCCGTTAGCAACTGTTTGGCAATATACATTTACCTTTTAAGAGGAGGAAT,–,0.499,–
CGACATGTCCCGCTTCTTTCATTAATCCGTTAACAACTGTTTTGATATATACATTTACCTTTTAAGAGGAGGAAT,–,0.235,–
CGACATGTCCCGCTTCTTTCATTAATCCGTTAGCAACTGTTATGCTATATACATTTAGCTTTTAAGAGGAGGAAT,–,0.711,–
ACAGACGAAGGAGCCGCAAAGAAGTTATTAAGGGATGAATAATCCCTCAATAAAAATATCTCTCACTTATTTAAA,0.147,–,cleaved RNA product abundance [4]: 0.172; cleaved RNA product abundance [1]: 0.28
CGACATGTCCCGCTTCTTTCATTAATCCGTTAGCAACTGTTTTGGTATATACATTTACATTTTAAGAGGAGGAAT,–,0.529,–
ACAGACGAAGGAGCCGCAAAGAAGTTATTAAGGGATGAATAATCCCTCAAAATAAATAGCTCTCACTTATTTAAA,–,–,cleaved RNA product abundance [4]: 0.26
ACAGACGAAGGAGCCGCAAAGAAGTTATTAAGAGATGAATACTCCCTCAATATAAATATCTCTCACTTATTTAAA,0.0945,–,–
CGACATGTCCCGCTTCTTTCATTAATCTGTTAGCAACTGTTTTGCTATATAAATTTACCTTTTAAGAGGAGGAAT,–,0.994,–
ACAGACGAAGGAGCCGCAAAGAAGTTATTAAGCGATGAATAATCCCTCAATATAAATAACTCTCACTTATTTAAA,0.102,–,cleaved RNA product abundance [4]: 0.114
ACAGACGAAGGAGCCGCAAACAAGTTATTAAGGGATGAATAATACCTCAATATAAATATCTCTCACTTATTTAAA,0.12,–,cleaved RNA product abundance [4]: 0.107
CGACATGTCCCGCTTCTTTCATTAATGCGTTAGCAAATGTTTTGCTATATACATTTACCTTTTAAGAGGAGGAAT,–,0.927,–
CGACATGTCCCGCTTCTTTCATTAATCCGTTAGCAAGTGTTTTGTTATATACATTTACCTTTTAAGAGGAGGAAT,–,0.21,–
ACAGACGAAGGAGCCGCAAACAAGTTATTAAAGGATGAATAATCCCTCATTATAAATATCTCTCACTTATTTAAA,0.115,–,–
ACAGACGAAGGAGCCGCAAAGAAGTTATTCAGGGAAGAATAATCCCTCAATATAAATATCTCTCACTTATTTAAA,0.697,–,–
CGACATGTCCCGCTTCTTTCATTAATCCGTTTGCATCTGTTTTGCTATATACATTTACCTTTTAAGAGGAGGAAT,–,0.274,–
ACAGACGAAGGAGCCGCATAGAAGTTATTAAGGGATGAATAATCCCTCAATATTAATATCTCTCACTTATTTAAA,0.121,–,–

Sequence,cleaved RNA product abundance [2],cleaved RNA product abundance [3],further results
ACAGACGAAGGAGCCGCAAAGAAGTTATTAAGGCATGAATAATCCCTCAATACAAATATCTCTCACTTATTTAAA,0.058,–,–
CGACATGTCCCGCTTCTTTCATTAATCCATTAGCAACTGTTATGCTATATACATTTACCTTTTAAGAGGAGGAAT,–,0.555,–
ACAGACGAAGGAGCCGCAAAGAAGTTATTAAGGGATGAAGAATCCCTCAATATCAATATCTCTCACTTATTTAAA,0.0586,–,–
ACAGACGAAGGAGCCGCAAAGAAGTTATTAAGGGATGAATAATCCCTCATATAAATATCTCTCACTTATTTAAAG,0.256,–,cleaved RNA product abundance [4]: 0.394
CGACATGTCCCGCTTCTTTCATTAATCCGTTAGCAATTGTTTTGCTATATACATTAACCTTTTAAGAGGAGGAAT,–,1.62,–
CGACATGTCCCGCTTCTTTCATTAATCCGTTAACAACTTTTTTGCTATATACATTTACCTTTTAAGAGGAGGAAT,–,0.193,–
CGACATGTCCCGCTTCTTTCATTACTCCGTTAGCAACTGTTTTGCTATATACATTAACCTTTTAAGAGGAGGAAT,–,1.36,–
ACAGACGAAGGAGCCGCAAAGAAGATATTAAGGGATGAATGATCCCTCAATATAAATATCTCTCACTTATTTAAA,0.565,–,–
ACAGACGAAGGAGCCGCAAAGAAGTTATTAAGGGATGAATAATCCCTCAATATAAATAACTCTCACTTATTTAAA,0.849,–,cleaved RNA product abundance [4]: 0.903; cleaved RNA product abundance [1]: 0.706
ACAGACGAAGGAGCCGCAAAGAAGTTATTAAGTGATGAATCATCCCTCAATATAAATATCTCTCACTTATTTAAA,0.147,–,cleaved RNA product abundance [4]: 0.125
ACAGACGAAGGAGCCGCAAAGAAGTAATTAAGGGATGAATATTCCCTCAATATAAATATCTCTCACTTATTTAAA,0.293,–,–
ACAGACGAAGGAGCCGCAAAGAAGCTATTAAGAGATGAATAATCCCTCAATATAAATATCTCTCACTTATTTAAA,0.123,–,cleaved RNA product abundance [4]: 0.0974
ACAGACGAAGGAGCCGCAATGAATTTATTAAGGGATGAATAATCCCTCAATATAAATATCTCTCACTTATTTAAA,0.786,–,–
ACAGACGAAGGAGCCGCAAAGAAATTATTAAGGGATGAATAATCCCTCAATATAAAAATCTCTCACTTATTTAAA,0.568,–,–
CGACATGTCCCGCTTCTTTCATTATTCCGTTAGCAACTGTTTCGCTATATACATTTACCTTTTAAGAGGAGGAAT,–,0.509,–
ACAGACGAAGGAGCCGCAAAGAAGTTATTAAGGGATCAATAATCCCTCAACATAAATATCTCTCACTTATTTAAA,0.258,–,–
CGACATGTCCCGCTTCTTTCATTAATCCGTTAGCAACTGTTTTACTATATACATTTACTTTTTAAGAGGAGGAAT,–,0.621,–
CGACATGTCCCGCTTCTTTCATTAATCCGTTAGCAAATGTTTTGCTATATACATTTTCCTTTTAAGAGGAGGAAT,–,0.6,–
ACAGACGAAGGAGCCGCAAAGAAGATATTAAGGGATGAATAATCCCTCTATATAAATATCTCTCACTTATTTAAA,0.406,–,cleaved RNA product abundance [4]: 0.362
ACAGACGAAGGAGCCGCAAAGAAGTTATTAAGGGATGGATAATTCCTCAATATAAATATCTCTCACTTATTTAAA,0.58,–,–
ACAGACGAAGGAGCCGCAAATAAATTATTAAGGGATGAATAATCCCTCAACATAAATATCTCTCACTTATTTAAA,0.396,–,–
CGACATGTCCCGCTTCTTTCATTAATCCGTTAGCAACTGTTTTGCTATATAGATTTACCCTTTAAGAGGAGGAAT,–,0.684,–
ACAGACGAAGGAGCCGCAAAGAAGTTATCAAATGATGAATAATCCCTCAATATAAATATCTCTCACTTATTTAAA,0.123,–,–

# From the supplement of paper PMC11780869
